Experimental data from paper PMC12069552, “Root stem cell homeostasis in Arabidopsis involves cell-type specific transcription factor complexes” (EMBO Reports, 2025).
Blank lines part the entries; values can stand above or below the molecule they belong to.

Tests used:
[1] = target: BRAVO-mVenus (BRASSINOSTEROIDS AT VASCULAR AND ORGANIZING CENTRE) (Arabidopsis thaliana) (UniProt Q6R053); test: FRET or BRET; FRET-FLIM in nuclei of transiently expressing N. benthamiana epidermal leaf cells; mVenus fusion as donor, mCherry fusion as acceptor; 'binding' [%] is the amplitude of the FRET component (number of donor molecules undergoing FRET); binding cutoff 10%; a binding not significantly different from the negative control (mCherry-NLS) is regarded as no interaction
[2] = target: WOX5-mV(N) PLT3-mV(C) heterodimer (BiFC donor) (Arabidopsis thaliana) (UniProt Q8H1D2); test: split reporter (BiFC, NanoBiT) + FRET or BRET; BiFC-FRET-FLIM in nuclei of N. benthamiana epidermal leaf cells; mVenus donor split into mV(N) and mV(C) on two proteins, third protein with mCherry as acceptor; 'binding' [%]; binding cutoff 10%
[3] = target: T1, WOX5-mV(N) PLT3-mV(C) heterodimer (BiFC donor) (Arabidopsis thaliana, UniProt Q8H1D2 1-182; Q52QU2 1-581); test: as above; details: partners not purified
T1 construct: WUSCHEL-RELATED HOMEOBOX 5 (WOX5) of Arabidopsis thaliana; the CDS, described in Burkart et al, 2022; PLETHORA 3 (PLT3) of Arabidopsis thaliana; The two halves of mVenus are reconstituted in the heterodimer, which serves as FRET donor; also called heterodimer of WOX5 and PLT3; source: N. benthamiana abaxial epidermal leaf cells, transiently co-expressed, in cells
T1 sequence (looked up) 1: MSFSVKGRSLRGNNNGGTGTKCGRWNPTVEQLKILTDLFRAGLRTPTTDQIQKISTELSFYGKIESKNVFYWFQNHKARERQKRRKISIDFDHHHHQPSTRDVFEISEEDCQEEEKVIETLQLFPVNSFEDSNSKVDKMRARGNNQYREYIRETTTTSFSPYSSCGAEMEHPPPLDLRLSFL
T1 sequence (looked up) 2: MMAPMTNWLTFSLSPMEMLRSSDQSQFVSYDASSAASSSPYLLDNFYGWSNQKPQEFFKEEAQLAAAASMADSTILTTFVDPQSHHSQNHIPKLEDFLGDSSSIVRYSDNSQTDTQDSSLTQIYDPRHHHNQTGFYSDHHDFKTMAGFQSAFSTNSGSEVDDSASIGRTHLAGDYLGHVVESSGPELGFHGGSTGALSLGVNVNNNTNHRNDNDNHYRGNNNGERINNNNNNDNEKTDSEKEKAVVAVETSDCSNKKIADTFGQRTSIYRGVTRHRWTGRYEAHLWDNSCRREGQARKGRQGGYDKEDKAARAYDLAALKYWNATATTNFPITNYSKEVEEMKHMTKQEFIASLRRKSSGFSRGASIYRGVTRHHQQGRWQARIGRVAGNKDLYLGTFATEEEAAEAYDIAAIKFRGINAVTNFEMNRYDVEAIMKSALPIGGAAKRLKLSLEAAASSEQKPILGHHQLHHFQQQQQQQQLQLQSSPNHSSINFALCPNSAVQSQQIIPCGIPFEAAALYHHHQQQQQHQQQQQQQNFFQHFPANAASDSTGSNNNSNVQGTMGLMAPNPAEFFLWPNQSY

[4] = target: T2, BRAVO-mV(N) PLT3-mV(C) heterodimer (BiFC donor) (Arabidopsis thaliana, UniProt Q6R053 1-323; Q52QU2 1-581); test: as above; details: partners not purified
T2 construct: BRAVO, R2R3-MYB transcription factor of Arabidopsis thaliana; the CDS amplified from cDNA; PLETHORA 3 (PLT3) of Arabidopsis thaliana; the CDS, described in Burkart et al, 2022; The two halves of mVenus are reconstituted in the heterodimer, which serves as FRET donor; source: N. benthamiana abaxial epidermal leaf cells, transiently co-expressed, in cells
T2 sequence (looked up) 1: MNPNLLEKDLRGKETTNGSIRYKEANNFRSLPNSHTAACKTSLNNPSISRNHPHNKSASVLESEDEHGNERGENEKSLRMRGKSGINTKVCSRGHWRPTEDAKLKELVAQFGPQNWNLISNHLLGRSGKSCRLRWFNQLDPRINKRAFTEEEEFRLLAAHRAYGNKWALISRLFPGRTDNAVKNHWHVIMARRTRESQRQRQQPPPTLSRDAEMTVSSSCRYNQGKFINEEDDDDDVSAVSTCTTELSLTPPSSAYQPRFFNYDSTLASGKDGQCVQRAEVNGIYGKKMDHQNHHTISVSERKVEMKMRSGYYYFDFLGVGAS
T2 sequence (looked up) 2: T1 sequence (looked up) 2

[5] = target: T3, BRAVO-mVenus (BRASSINOSTEROIDS AT VASCULAR AND ORGANIZING CENTRE) (Arabidopsis thaliana, UniProt Q6R053 1-323); test: FRET or BRET; FRET-FLIM in nuclei of transiently expressing N. benthamiana epidermal leaf cells; mVenus fusion as donor, mCherry fusion as acceptor; 'binding' [%] is the amplitude of the FRET component (number of donor molecules undergoing FRET); binding cutoff 10%; a binding not significantly different from the negative control (mCherry-NLS) is regarded as no interaction; details: partners not purified
T3 construct: BRAVO, R2R3-MYB transcription factor of Arabidopsis thaliana; the CDS amplified from cDNA; FRET donor; source: N. benthamiana abaxial epidermal leaf cells, transiently expressed (β-estradiol inducible promoter), in cells
T3 sequence (looked up): T2 sequence (looked up) 1

binding (FRET-FLIM, share of donor molecules undergoing FRET) [1]: 27.4%
binding (FRET-FLIM, share of donor molecules undergoing FRET) [2]: 18.7%
Molecule: BES1D-mCherry (BRI1-EMS-SUPPRESSOR 1, BES1D form) (from UniProt Q9LN63 1-335) (natural protein)

binding (FRET-FLIM, share of donor molecules undergoing FRET) [3]: 36.3 ± 10.7%
B1: BRAVO-mCherry (natural protein, Arabidopsis thaliana, UniProt Q6R053 1-323, looked up)
chain: T2 sequence (looked up) 1
notes: BRAVO, R2R3-MYB transcription factor of Arabidopsis thaliana; the CDS amplified from cDNA; FRET acceptor; source: N. benthamiana abaxial epidermal leaf cells, transiently expressed (β-estradiol inducible), in cells

binding (FRET-FLIM, share of donor molecules undergoing FRET) [3]: 23.3 ± 8.3%
binding (FRET-FLIM, share of donor molecules undergoing FRET) [4]: 21.1 ± 8.3%
binding (FRET-FLIM, share of donor molecules undergoing FRET) [5]: 26.7 ± 9.8%
B2: TPL-mCherry (TOPLESS) (natural protein, Arabidopsis thaliana, UniProt Q94AI7 1-1131, looked up)
chain: MSSLSRELVFLILQFLDEEKFKETVHKLEQESGFFFNMKYFEDEVHNGNWDEVEKYLSGFTKVDDNRYSMKIFFEIRKQKYLEALDKHDRPKAVDILVKDLKVFSTFNEELFKEITQLLTLENFRENEQLSKYGDTKSARAIMLVELKKLIEANPLFRDKLQFPTLRNSRLRTLINQSLNWQHQLCKNPRPNPDIKTLFVDHSCGPPNGARAPSPVNNPLLGGIPKAGGFPPLGAHGPFQPTASPVPTPLAGWMSSPSSVPHPAVSAGAIALGGPSIPAALKHPRTPPTNASLDYPSADSEHVSKRTRPMGISDEVNLGVNMLPMSFSGQAHGHSPAFKAPDDLPKTVARTLSQGSSPMSMDFHPIKQTLLLVGTNVGDIGLWEVGSRERLVQKTFKVWDLSKCSMPLQAALVKEPVVSVNRVIWSPDGSLFGVAYSRHIVQLYSYHGGEDMRQHLEIDAHVGGVNDISFSTPNKQLCVITCGDDKTIKVWDAATGVKRHTFEGHEAPVYSVCPHYKENIQFIFSTALDGKIKAWLYDNMGSRVDYDAPGRWCTTMAYSADGTRLFSCGTSKDGESFIVEWNESEGAVKRTYQGFHKRSLGVVQFDTTKNRYLAAGDDFSIKFWDMDAVQLLTAIDGDGGLQASPRIRFNKEGSLLAVSGNENVIKIMANSDGLRLLHTFENISSESSKPAINSIAAAAAAAATSAGHADRSANVVSIQGMNGDSRNMVDVKPVITEESNDKSKIWKLTEVSEPSQCRSLRLPENLRVAKISRLIFTNSGNAILALASNAIHLLWKWQRNERNATGKATASLPPQQWQPASGILMTNDVAETNPEEAVPCFALSKNDSYVMSASGGKISLFNMMTFKTMATFMPPPPAATFLAFHPQDNNIIAIGMDDSTIQIYNVRVDEVKSKLKGHSKRITGLAFSNVLNVLVSSGADAQLCVWNTDGWEKQRSKVLPLPQGRPNSAPSDTRVQFHQDQAHFLVVHETQLAIYETTKLECMKQWAVRESLAPITHATFSCDSQLVYASFMDATVCVFSSANLRLRCRVNPSAYLPASLSNSNVHPLVIAAHPQEPNMFAVGLSDGGVHIFEPLESEGKWGVAPPAENGSASGAPTAPSVGASASDQPQR
notes: TOPLESS (TPL) of Arabidopsis thaliana; the CDS amplified from cDNA; FRET acceptor; source: N. benthamiana abaxial epidermal leaf cells, transiently expressed (β-estradiol inducible), in cells

binding (FRET-FLIM, share of donor molecules undergoing FRET) [4]: 29.8 ± 10.6%
binding (FRET-FLIM, share of donor molecules undergoing FRET) [5]: 22.4 ± 14.1%
B3: WOX5-mCherry (WUSCHEL-RELATED HOMEOBOX 5) (natural protein, Arabidopsis thaliana, UniProt Q8H1D2 1-182, looked up)
chain: T1 sequence (looked up) 1
notes: WUSCHEL-RELATED HOMEOBOX 5 (WOX5), homeodomain transcription factor of Arabidopsis thaliana; the CDS, described in Burkart et al, 2022; FRET acceptor; construct XVE:WOX5-mCherry of Burkart et al, 2022; source: N. benthamiana abaxial epidermal leaf cells, transiently expressed (β-estradiol inducible), in cells
